# Assay results as given in PMC5484534.
# Target: 5,6-TAMRA-labeled short BMAL1 TAD (residues 594-626), wild type (mouse)
# Experiment: fluorescence polarisation
# mouse CRY1 photolyase homology region (PHR, residues 1-491), sequence (P97784 1-491): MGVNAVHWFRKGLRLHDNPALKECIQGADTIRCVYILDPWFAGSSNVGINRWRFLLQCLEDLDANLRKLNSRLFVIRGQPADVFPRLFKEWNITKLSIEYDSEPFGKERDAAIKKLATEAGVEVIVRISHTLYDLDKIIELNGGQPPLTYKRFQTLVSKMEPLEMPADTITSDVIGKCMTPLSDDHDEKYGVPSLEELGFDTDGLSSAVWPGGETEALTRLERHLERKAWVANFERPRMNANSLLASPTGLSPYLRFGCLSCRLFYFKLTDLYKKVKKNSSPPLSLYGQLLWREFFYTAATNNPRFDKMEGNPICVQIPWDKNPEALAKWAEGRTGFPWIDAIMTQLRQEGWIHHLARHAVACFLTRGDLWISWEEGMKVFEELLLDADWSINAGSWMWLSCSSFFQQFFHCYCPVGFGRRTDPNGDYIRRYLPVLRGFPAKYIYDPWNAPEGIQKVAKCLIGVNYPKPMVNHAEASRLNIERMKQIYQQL
substance,measurement,value
"mouse CRY1 photolyase homology region (PHR, residues 1-491) (from UniProt P97784 1-491) (domain or fragment)",Kd,900 nM
